Sequences and labels used below:
B1: Flag-ASNS (wild type) [not stated] / NEK8 (partner in the co-immunoprecipitation with ASNS-WT and ASNS-S349A) [not stated] (parent)
chain 1: MCGIWALFGSDDCLSVQCLSAMKIAHRGPDAFRFENVNGYTNCCFGFHRLAVVDPLFGMQPIRVKKYPYLWLCYNGEIYNHKKMQQHFEFEYQTKVDGEIILHLYDKGGIEQTICMLDGVFAFVLLDTANKKVFLGRDTYGVRPLFKAMTEDGFLAVCSEAKGLVTLKHSATPFLKVEPFLPGHYEVLDLKPNGKVASVEMVKYHHCRDVPLHALYDNVEKLFPGFEIETVKNNLRILFNNAVKKRLMTDRRIGCLLSGGLDSSLVAATLLKQLKEAQVQYPLQTFAIGMEDSPDLLAARKVADHIGSEHYEVLFNSEEGIQALDEVIFSLETYDITTVRASVGMYLISKYIRKNTDSVVIFSGEGSDELTQGYIYFHKAPSPEKAEEESERLLRELYLFDVLRADRTTAAHGLELRVPFLDHRFSSYYLSLPPEMRIPKNGIEKHLLRETFEDSNLIPKEILWRPKEAFSDGITSVKNSWFKILQEYVEHQVDDAMMANAAQKFPFNTPKTKEGYYYRQVFERHYPGRADWLSHYWMPKWINATDPSARTLTHYKSAVKA
chain 2: MEKYERIRVVGRGAFGIVHLCLRKADQKLVIIKQIPVEQMTKEERQAAQNECQVLKLLNHPNVIEYYENFLEDKALMIAMEYAPGGTLAEFIQKRCNSLLEEETILHFFVQILLALHHVHTHLILHRDLKTQNILLDKHRMVVKIGDFGISKILSSKSKAYTVVGTPCYISPELCEGKPYNQKSDIWALGCVLYELASLKRAFEAANLPALVLKIMSGTFAPISDRYSPELRQLVLSLLSLEPAQRPPLSHIMAQPLCIRALLNLHTDVGSVRMRRAEKSVAPSNTGSRTTSVRCRGIPRGPVRPAIPPPLSSVYAWGGGLGTPLRLPMLNTEVVQVAAGRTQKAGVTRSGRLILWEAPPLGAGGGSLLPGAVEQPQPQFISRFLEGQSGVTIKHVACGDFFTACLTDRGIIMTFGSGSNGCLGHGSLTDISQPTIVEALLGYEMVQVACGASHVLALSTERELFAWGRGDSGRLGLGTRESHSCPQQVPMPPGQEAQRVVCGIDSSMILTVPGQALACGSNRFNKLGLDHLSLGEEPVPHQQVEEALSFTLLGSAPLDQEPLLSIDLGTAHSAAVTASGDCYTFGSNQHGQLGTNTRRGSRAPCKVQGLEGIKMAMVACGDAFTVAIGAESEVYSWGKGARGRLGRRDEDAGLPRPVQLDETHPYTVTSVSCCHGNTLLAVRSVTDEPVPP

Variants of B1 are the subject of the first test. Kind of test: co-immunoprecipitation (IP: ASNS, IB: NEK8), band intensity quantified. The conditions noted are these: parent: 4.9, read off a plot.
Take chain 1 MCGIWALFGSDDCLSVQCLSAMKIAHRGPDAFRFENVNGYTNCCFGFHRLAVVDPLFGMQPIRVKKYPYLWLCYNGEIYNHKKMQQHFEFEYQTKVDGEIILHLYDKGGIEQTICMLDGVFAFVLLDTANKKVFLGRDTYGVRPLFKAMTEDGFLAVCSEAKGLVTLKHSATPFLKVEPFLPGHYEVLDLKPNGKVASVEMVKYHHCRDVPLHALYDNVEKLFPGFEIETVKNNLRILFNNAVKKRLMTDRRIGCLLSGGLDSSLVAATLLKQLKEAQVQYPLQTFAIGMEDSPDLLAARKVADHIGSEHYEVLFNSEEGIQALDEVIFSLETYDITTVRASVGMYLIAKYIRKNTDSVVIFSGEGSDELTQGYIYFHKAPSPEKAEEESERLLRELYLFDVLRADRTTAAHGLELRVPFLDHRFSSYYLSLPPEMRIPKNGIEKHLLRETFEDSNLIPKEILWRPKEAFSDGITSVKNSWFKILQEYVEHQVDDAMMANAAQKFPFNTPKTKEGYYYRQVFERHYPGRADWLSHYWMPKWINATDPSARTLTHYKSAVKA [chain 1 S349A]: the response was 3.1.

The variants in another test derive from B1. Kind of test: co-immunoprecipitation (IP: Flag-ASNS, IB: NEK8), band intensity quantified. To be noted: parent: 5.4, read off a plot.
As for chain 1 MCGIWALFGSDDCLSVQCLSAMKIAHRGPDAFRFENVNGYTNCCFGFHRLAVVDPLFGMQPIRVKKYPYLWLCYNGEIYNHKKMQQHFEFEYQTKVDGEIILHLYDKGGIEQTICMLDGVFAFVLLDTANKKVFLGRDTYGVRPLFKAMTEDGFLAVCSEAKGLVTLKHSATPFLKVEPFLPGHYEVLDLKPNGKVASVEMVKYHHCRDVPLHALYDNVEKLFPGFEIETVKNNLRILFNNAVKKRLMTDRRIGCLLSGGLDSSLVAATLLKQLKEAQVQYPLQTFAIGMEDSPDLLAARKVADHIGSEHYEVLFNSEEGIQALDEVIFSLETYDITTVRASVGMYLIAKYIRKNTDSVVIFSGEGSDELTQGYIYFHKAPSPEKAEEESERLLRELYLFDVLRADRTTAAHGLELRVPFLDHRFSSYYLSLPPEMRIPKNGIEKHLLRETFEDSNLIPKEILWRPKEAFSDGITSVKNSWFKILQEYVEHQVDDAMMANAAQKFPFNTPKTKEGYYYRQVFERHYPGRADWLSHYWMPKWINATDPSARTLTHYKSAVKA [chain 1 S349A], the response stood at 2.7.

For the origin of these results see PMC11702068, “NEK8 promotes the progression of gastric cancer by reprogramming asparagine metabolism” (Molecular Medicine, 2025).
